Reference: paper PMC8026907

T1: cAMP receptor protein from Mycobacterium tuberculosis (Mycobacterium tuberculosis), P9WMH3
T1 chain: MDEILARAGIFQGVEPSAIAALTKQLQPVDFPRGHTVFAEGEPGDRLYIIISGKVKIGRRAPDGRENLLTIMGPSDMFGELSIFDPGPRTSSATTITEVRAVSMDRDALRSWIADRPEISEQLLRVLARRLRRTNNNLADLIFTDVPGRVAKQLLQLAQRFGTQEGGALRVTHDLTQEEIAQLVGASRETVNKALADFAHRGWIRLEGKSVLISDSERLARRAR

T2: CRP-MTB E178K (Mycobacterium tuberculosis, UniProt P9WMH3 1-224, E178K)
T2 sequence: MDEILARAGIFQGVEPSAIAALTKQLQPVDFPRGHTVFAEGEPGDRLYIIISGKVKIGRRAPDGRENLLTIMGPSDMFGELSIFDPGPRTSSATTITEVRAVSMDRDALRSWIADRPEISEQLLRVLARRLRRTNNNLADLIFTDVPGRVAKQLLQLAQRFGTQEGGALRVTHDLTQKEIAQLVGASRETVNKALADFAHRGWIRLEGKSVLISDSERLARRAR

T3: CRP-MTB L47P (Mycobacterium tuberculosis, UniProt P9WMH3 1-224, L47P)
T3 sequence: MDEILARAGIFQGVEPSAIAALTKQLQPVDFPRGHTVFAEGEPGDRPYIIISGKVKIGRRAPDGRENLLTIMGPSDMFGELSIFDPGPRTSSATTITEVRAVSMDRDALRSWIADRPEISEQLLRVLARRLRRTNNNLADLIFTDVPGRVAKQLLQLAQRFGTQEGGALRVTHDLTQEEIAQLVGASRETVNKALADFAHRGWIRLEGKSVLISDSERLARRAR


Experiments:
[1] = molecular target: T1, cAMP receptor protein from …; assay: AUC; details: remark: other sources report otherwise
[2] = molecular target: T1, cAMP receptor protein from …; assay: SEC; details: remark: other sources report otherwise
CRP-MTB E178K [3] = molecular target: T2, CRP-MTB E178K; assay: fluorescence anisotropy; 1 mM cAMP; details: protein: recombinant; tags: His-tag (pET-3a); chain copies: 2; blunt
CRP-MTB L47P [4] = molecular target: T3, CRP-MTB L47P; assay: fluorescence anisotropy; 0.1 mM cAMP; details: protein: recombinant; tags: His-tag (pET-3a); chain copies: 2; blunt
CRP-MTB E178K [5] = molecular target: T2, CRP-MTB E178K; assay: fluorescence anisotropy; 0.1 mM cAMP; details: protein: recombinant; tags: His-tag (pET-3a); chain copies: 2; blunt
CRP-MTB L47P [6] = molecular target: T3, CRP-MTB L47P; assay: fluorescence anisotropy; no cAMP (apo); details: protein: recombinant; tags: His-tag (pET-3a); chain copies: 2; blunt
CRP-MTB E178K [7] = molecular target: T2, CRP-MTB E178K; assay: fluorescence anisotropy; no cAMP (apo); details: protein: recombinant; tags: His-tag (pET-3a); chain copies: 2; blunt

Binder | Kd [1] [µM] | stoichiometry N [1] | stoichiometry N [2] | Ka (CRP-MTB E178K [3]) | Ka (CRP-MTB L47P [4]) | Ka (CRP-MTB E178K [5]) | Ka (CRP-MTB L47P [6]) | Ka (CRP-MTB E178K [7])
cAMP receptor protein from Mycobacterium tuberculosis, P9WMH3 (natural protein) MDEILARAGIFQGVEPSAIAALTKQLQPVDFPRGHTVFAEGEPGDRLYIIISGKVKIGRRAPDGRENLLTIMGPSDMFGELSIFDPGPRTSSATTITEVRAVSMDRDALRSWIADRPEISEQLLRVLARRLRRTNNNLADLIFTDVPGRVAKQLLQLAQRFGTQEGGALRVTHDLTQEEIAQLVGASRETVNKALADFAHRGWIRLEGKSVLISDSERLARRAR | < 0.01 | 2 | 2 | – | – | – | – | –
SerC promoter 32-bp, fluorescein (dsDNA) DNA 1: GCGCGTAGTGTGAACAAGCTCACATGCAAGCC DNA 2: GGCTTGCATGTGAGCTTGTTCACACTACGCGC | – | – | – | 21 ± 12.9 1e8 M-1 | 7.3 ± 3 1e8 M-1 | 10 ± 5 1e8 M-1 | 2.7 ± 0.9 1e8 M-1 | 15 ± 5.3 1e8 M-1
